Reference: patent US20250313631A1 (HUMMINGBIRD BIOSCIENCE PTE, published 2025)

T1: rat VISTA expressed on cells (rat, UniProt A0ABK0L5H3 33-310)
T1 construct: whole, on cells; also called rat VISTA on HEK293T cells; VISTA on rat CD11b+ myeloid cells
T1 sequence: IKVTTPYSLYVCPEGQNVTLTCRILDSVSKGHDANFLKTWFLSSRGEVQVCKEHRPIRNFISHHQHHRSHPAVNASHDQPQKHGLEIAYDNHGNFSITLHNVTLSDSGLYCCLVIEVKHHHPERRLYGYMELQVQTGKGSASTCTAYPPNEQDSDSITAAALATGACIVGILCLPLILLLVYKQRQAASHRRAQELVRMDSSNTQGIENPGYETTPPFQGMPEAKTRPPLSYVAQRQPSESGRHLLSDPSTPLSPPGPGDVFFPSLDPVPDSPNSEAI

T2: human B7H7 (human, UniProt Q9UM44 23-344)
T2 construct: also called HHLA2
T2 sequence (looked up): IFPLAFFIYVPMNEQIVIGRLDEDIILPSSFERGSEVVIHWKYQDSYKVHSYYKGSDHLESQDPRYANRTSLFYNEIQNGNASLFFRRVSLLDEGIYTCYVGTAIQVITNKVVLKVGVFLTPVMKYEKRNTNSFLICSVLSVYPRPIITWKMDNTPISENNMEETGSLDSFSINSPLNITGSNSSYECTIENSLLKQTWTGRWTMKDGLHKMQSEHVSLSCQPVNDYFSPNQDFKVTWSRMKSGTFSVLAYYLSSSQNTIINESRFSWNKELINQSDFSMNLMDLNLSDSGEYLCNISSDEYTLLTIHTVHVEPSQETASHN


Legend:
[1] = biological target: T3, recombinant human VISTA (His-tagged) (human, UniProt Q9H7M9 33-194); assay: BLI (Octet QK384): His-tagged human VISTA on anti-Penta-HIS tips, V4 1000 to 31.3 nM as analyte, global fit
T3 construct: bought soluble protein (Sino Biological); also called hVISTA; human VISTA polypeptide

human CD47 = biological target: T4, human CD47 (human, UniProt Q08722 19-139); assay: BLI (Octet), His-tagged hCD47 on anti-Penta-HIS biosensor, antibody 1500-46.9 nM
T4 construct: also called hCD47
T4 sequence (Q08722 19-139 limits assumed): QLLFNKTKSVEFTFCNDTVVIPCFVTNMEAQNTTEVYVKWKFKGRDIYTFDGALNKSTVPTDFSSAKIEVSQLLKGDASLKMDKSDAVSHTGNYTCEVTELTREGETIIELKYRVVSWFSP

[2] = biological target: T3, recombinant human VISTA (His-tagged); assay: antigen-binding ELISA; HMBD-002 in F8, day 10 at 40°C
[3] = biological target: T3, recombinant human VISTA (His-tagged); assay: antigen-binding ELISA; HMBD-002 in F3, day 30 at 40°C
[4] = biological target: T5, cynomolgus macaque VISTA expressed on cells (cynomolgus macaque, UniProt A0A7N9IB00 33-311); assay: flow cytometry, endogenous VISTA on CD11b+ myeloid cells of NHP PBMCs
T5 construct: whole, on cells; also called NHP VISTA on HEK293T cells; VISTA on NHP CD11b+ myeloid cells

[5] = biological target: T3, recombinant human VISTA (His-tagged); assay: antigen-binding ELISA; HMBD-002 in F5, day 20 at 40°C
[6] = biological target: T3, recombinant human VISTA (His-tagged); assay: antigen-binding ELISA; reference standard run with the day 20 samples
[7] = biological target: T3, recombinant human VISTA (His-tagged); assay: antigen-binding ELISA; HMBD-002 in F10, day 10 at 40°C
[8] = biological target: T6, recombinant cynomolgus macaque VISTA (His-tagged) (cynomolgus macaque, UniProt A0A7N9IB00 33-194); assay: ELISA, NHP VISTA-HIS protein coated; ELISA, NHP (cynomolgus) VISTA-HIS
T6 construct: also called cyno VISTA; cynomolgus monkey VISTA

[9] = biological target: T3, recombinant human VISTA (His-tagged); assay: SPR (Biacore), VISTA-HIS captured, antibody as analyte, 1:1 model; SPR (Biacore), human VISTA
[10] = biological target: T3, recombinant human VISTA (His-tagged); assay: antigen-binding ELISA; HMBD-002 10 mg/mL in F6, day 0
human PD-L1 = biological target: T7, human PD-L1 (human, UniProt Q9NZQ7 19-239); assay: ELISA, plate coated with human B7H1 (PDL1), antibody titrated
T7 construct: captured through a His tag in the BLI experiments; also called hPD-L1; B7H1/PDL-1
T7 sequence (Q9NZQ7 19-239 limits assumed): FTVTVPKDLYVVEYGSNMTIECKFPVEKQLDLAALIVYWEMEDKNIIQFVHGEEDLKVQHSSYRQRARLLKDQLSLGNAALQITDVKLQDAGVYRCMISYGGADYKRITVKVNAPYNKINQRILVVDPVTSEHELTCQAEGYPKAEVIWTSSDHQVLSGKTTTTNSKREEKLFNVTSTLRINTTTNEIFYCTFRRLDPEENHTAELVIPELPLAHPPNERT

[11] = biological target: T8, human VISTA expressed on cells (human, UniProt Q9H7M9 33-311); assay: flow cytometry, HEK293T cells expressing the VISTA ortholog
T8 construct: also called HEK293 VISTA O/E; HEK293T or HEK293-6E cells overexpressing human VISTA

[12] = biological target: T1, rat VISTA expressed on cells; assay: as above
[13] = biological target: T3, recombinant human VISTA (His-tagged); assay: antigen-binding ELISA; HMBD-002 in F1, day 20 at 40°C
[14] = biological target: T3, recombinant human VISTA (His-tagged); assay: antigen-binding ELISA; HMBD-002 10 mg/mL in F2, day 0
[15] = biological target: T3, recombinant human VISTA (His-tagged); assay: antigen-binding ELISA; HMBD-002 in F4, day 30 at 40°C
[16] = biological target: T3, recombinant human VISTA (His-tagged); assay: antigen-binding ELISA; HMBD-002 in F5, day 30 at 40°C
human B7H7 = biological target: T2, human B7H7; assay: ELISA, plate coated with human B7H7, antibody titrated

| kon [1] | binding result (human CD47) | EC50 [2] | EC50 [3] | EC50 [4] | EC50 [5] | EC50 [6] | EC50 [7] | EC50 [8] | Kd [9] | EC50 [10] | binding result (human PD-L1) | EC50 [11] | EC50 [12] | EC50 [13] | EC50 [14] | EC50 [15] | EC50 [16] | binding result (human B7H7) | Binder |
| --- | --- | --- | --- | --- | --- | --- | --- | --- | --- | --- | --- | --- | --- | --- | --- | --- | --- | --- | --- |
| 45400 M⁻¹ s⁻¹ | no binding (tested: 1500 nM) |  |  |  |  |  |  |  |  |  |  |  |  |  |  |  |  |  | anti-VISTA clone 4M2-C12 IgG1 (antibody, mouse variable regions on human IgG1/kappa constant regions; also called V4; V4pr) heavy: not shown light: DIVITQTPAILSTSPGEKVTMTCRASSSVGYIHWYQQKPGSSPKPWIYATSNLASGVPARFSGSGSGTSNSLTITRVEAEDAATYYCQQWSSYPPITFGGGTKLEVKRTVAAPSVFIFPPSDEQLKSGTASVVCLLNNFYPREAKVQWKVDNALQSGNSQESVTEQDSKDSTYSLSSTLTLSKADYEKHKVYACEVTHQGLSSPVTKSFNRGEC |
|  |  | 0.028 nM | 0.0227 nM | 67.6 nM | 0.0239 nM | 0.0355 nM | 0.0281 nM | 0.0121 nM | 0.407 nM | 0.0294 nM | no binding (tested: about 3e-8 M) | 3.74 nM | 4.13 nM | 0.0172 nM | 0.0339 nM | 0.0227 nM | 0.0223 nM | no binding (tested: about 3e-8 M) | V4-C26 hIgG4 (antibody, human IgG4 (S228P)/kappa format; also called HMBD-002; HMBD-002-V4C26) heavy: not shown light: EIVLTQSPATLSLSPGERATLSCRASSSVGYIHWYQQKPGQAPRPIIYTTSNRATGIPARFSGSGSGTDNTLTISSLEPEDSAVYYCQQWSSYPPITFGGGTKLEVKRTVAAPSVFIFPPSDEQLKSGTASVVCLLNNFYPREAKVQWKVDNALQSGNSQESVTEQDSKDSTYSLSSTLTLSKADYEKHKVYACEVTHQGLSSPVTKSFNRGEC |
